Measured values published in the nanobody polyreactivity screen of Harvey et al. (2022).

Assay: yeast display, Sf9 membrane polyspecificity reagent, FACS + sequencing; frameworks hold sequencing errors
In short: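 Using colony PCR, genes from sorted yeast display clones were amplified, then sequenced on MiSeq at 2 × 250 and filtered by CDR length. The clones had been stained with 10% biotinylated, detergent-solubilized Sf9 membrane reagent for 1 hour at 4 °C and sorted by FACS into low and high (top ~1%) gates on anti-HA and streptavidin fluorescence. Polyreactivity labels come from the gate of origin.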

Row | Sequence | polyreactivity (PSR sort gate)
1 | QVQLVESGGGLVQAGGSLRLSCAASGRTFADNAMGWYRQAPGKERELVASISSGTSTNYADSVKGRFTISRDNAKNTVYLQMNSLKPEDTAVYYCAADFSVYTEEDDSWGHGTQVTVSS | low polyreactivity
2 | QVQLVESGGGLVQAGGSLRLSCAASGRTFAGNAMGWYRQAPGKERELVAAISQGGGSTYYADSVKGRFTISRDNAKNTVYLQMNSLKPEDTAVYYCAAEIPRRWASFATLWYDYWGQGTQVTVSS | low polyreactivity
3 | QVQLVESGGGLVQAGGSLRLSCAASGRTFAGNAMGWYRQAPGKEREMVAAISVSGSTTYYADSVKGRFTISRDNAKNTVYLQMNSLKPEDTAVYYCAARGLTYRSDMYYWGQGTQVTVSS | low polyreactivity
4 | QVQLVESGGGLVQAGGSLRLSCAASGRTFAGYAMGWYRQAPGKERELVAAITNGGSTKYADSVKGRFTISRDNAKNTVYLQMNSLKPEDTAVYYCNARKRFYSGNTLMYYWGQGTQVTLSS | high polyreactivity
5 | QVQLVESGGGLVQAGGSLRLSCAASGRTFAINAMGWHRQAPGKERELVADITTDGSTYYADSVKGRFTISRDNAKNTVYLQMNSLKPEDTAVYYCATDSLDYFIRFKQFGYWGQGTQVTVSS | low polyreactivity
6 | QVQLVESGGGLVQAGGSLRLSCAASGRTFAKYAMGWYRQAPGKERELVAAITRGDTTNYADSVKGRFTISRDNAKNTVYLQMNSLKPEDTGVYYCAATPDPPHTYEYWGQGTQVTVSS | low polyreactivity
7 | QVQLVESGGGLVQAGGSLRLSCAASGRTFALYAMGWYRQAPGTERELVASISWRGGSTYYADSVKGRFTISRDNAKNTVYLQMNSLKPEDTAVYYCAADTWSYGPLNYRLEYWGQGTQVTVSS | low polyreactivity
8 | QVQLVESGGGLVQAGGSLRLSCAASGRTFANNAMGWYRQAPGKERELVAAITASGGRTYYADSVKGRFTISRDNAKNTVYLQLNSLKPEDTAVYYCAKRGYASGSKWDYGYWGQGTQVTVSS | high polyreactivity
9 | QVQLVESGGGLVQAGGSLRLSCAASGRTFANYAMGWYRQAPGKERELVAAISYSGGSTYYADSVKGRFTISRDNAKNTVYLQMNSLKPVDTAVYYCAKRWTGLGGYYYWGQGTQVTVSS | high polyreactivity
10 | QVQLVESGGGLVQAGGSLRLSCAASGRTFAPYAMGWYRQAPGKERELVAGITYRTGNTYYADSVKGRFTISRDNAKNTVYLQMNSLKPEDTAVYYCAAYSGYYRPRYNYWGQGTQVTVSS | high polyreactivity
11 | QVQLVESGGGLVQAGGSLRLSCAASGRTFAPYTMGWYRQAPGKERELVAVITRRDGRTYYADSVKGRFTISRDNAKNTVYLQMNSLKPEDTAVYYCCFFPADWYRPVRDLRTDSDYWGQGTQVTVSS | low polyreactivity
12 | QVQLVESGGGLVQAGGSLRLSCAASGRTFAPYVMGWYRQAPGKERELVAAITWSGGSTYYADSVKGRFTISRDNAKNTVYLQMNSLKPEDTALYYCAVKGAGGPKYDYWGQGTQVTVSS | high polyreactivity
13 | QVQLVESGGGLVQAGGSLRLSCAASGRTFAQYAMGWYRQAPGKERELVAAITKRGGTTYYADSVKGRFTISRDNAKNTVYLQMNSLKPEDTAVYYCKAGGVVPSTYYWGQGTQVTVSS | high polyreactivity
14 | QVQLVESGGGLVQAGGSLRLSCAASGRTFARNAMGWYRPAPGKERELVAAITGRGGSTHYADSVKGRFTISRDNAKNTVYLKMNSLKPEDTAVYYCAADYRYNRGSTSNKDYDYWGQGTQVTVSS | low polyreactivity
15 | QVQLVESGGGLVQAGGSLRLSCAASGRTFARNAMGWYRQAPGKERELGAAISSSGGSTYYADSVKGRFTISRDNAKNTVYLQMNSLKPEDTAVYYCDARSRHAYGYWGQGTQVTVSS | high polyreactivity
16 | QVQLVESGGGLVQAGGSLRLSCAASGRTFARNAMGWYRQAPGKERELVAAITSIGTRTYYADSVKARFTISRDNAMNTVYLQMNSLKREDTAVYYCNKKRTADYDYWGQGTQVTVSS | low polyreactivity
17 | QVQLVESGGGLVQAGGSLRLSCAASGRTFARYAMGWYRPAPGKERELVAAISSSGGSTYYADSVKWRFTISRDNAKNTVYLQMNSLKPEDTAVYYCVTYRNWWYDFWGQGTQVTGSS | high polyreactivity
18 | QVQLVESGGGLVQAGGSLRLSCAASGRTFARYVMGWYRQAPGKERELVAAINSGGTTYYADSVKGRFTISRDNAKNTVYLQMNSLKPEDTAVYYCNARRGHYAYDYWGQGTQVTLSS | high polyreactivity
19 | QVQLVESGGGLVQAGGSLRLSCAASGRTFASNAMGWYRQAPGKERELVAAITISGGRTYYADSVKGRFTISRDNAKNTVYLQMNSLKPEDTAVYYCAAAKHSWRPSYYWGGYWGQGTQVTVSS | low polyreactivity
20 | QVQLVESGGGLVQAGGSLRLSCAASGRTFASYARGWYRQAPGKERELVAVITRGVRTYYADSVKGRFTISRDNAKNTVYLQMNSLKPEDTAVYYCAKERYNANYDTSLYDYWGQGTQVTVSS | low polyreactivity
21 | QVQLVESGGGLVQAGGSLRLSCAASGRTFATNTMGWSRQAPGKERELVAAITFSGGSTYYADSVKGRFTISRDNAKNTVYLQMNSLKPEDTAVYYCNVRSPYYSYRYRYGYWGQGTQVTVSS | high polyreactivity
22 | QVQLVESGGGLVQAGGSLRLSCAASGRTFATNTMGWYRQAPGKERELVAAITFSGGSTYYADSVKGRFTISRDNAKNTVYLQMNSLKREDTAVYYCNVRSPYYSYRYRYGYWGHGTQVTVSS | high polyreactivity

Row | Sequence | polyreactivity (PSR sort gate)
23 | QVQLVESGGGLVQAGGSLRLSCAASGRTFATYAMGWYRQEPGKERELVAAISTSGGSTYYADSVKGRFTISRDNAKNTVYLQMNSLKPEDTAVYYCAAVLSWRGYTCPVYAFDYWGQGTQVTVSS | high polyreactivity
24 | QVQLVESGGGLVQAGGSLRLSCAASGRTFATYMGWYRQAPGKERELVAGITRGGNTNYADSVKGRFTISRDNAKNTVYLQMNSLKPEDTAVYYCAKLKYRSHYSWGQGTQVTVSS | high polyreactivity
25 | QVQLVESGGGLVQAGGSLRLSCAASGRTFAVYAMGWYRQAPGKERELVAAITFGGGRTYYADSVKGRFTISRDNAKITVYLQMNSLKPEDTAVYYCAADYYGTDYDYRGQGTQVTVSS | low polyreactivity
26 | QVQLVESGGGLVQAGGSLRLSCAASGRTFAWYAMAWYRQAPGKERELVATITSRGGSTYYADSVKGRFTISRDNAKNTVYLQMNSLKPEYTAVYYCAAQSFWRPHQYDYWGQGTQVTVSS | low polyreactivity
27 | QVQLVESGGGLVQAGGSLRLSCAASGRTFAWYAMGWYRQAPGKERELVAAISNVGSTYYADSVKGRFTISRDNAKNTVYLQMNSLKPEDTAVYYCNADAVSTDGREYWGQGTQVTVSS | low polyreactivity
28 | QVQLVESGGGLVQAGGSLRLSCAASGRTFAYNAMGWYRQAPGKERELVAAISRSGGSTYYADSVKGRFTISRDNAKNTVYLQMNSLKPEDTAVYYCNKVTHSYLYFAAGDYWGLGTQVTVSS | high polyreactivity
29 | QVQLVESGGGLVQAGGSLRLSCAASGRTFAYNAMGWYRQAPGTERELVAAITGSGGRTYYADSVKGRFTLSRDNAKYTVYLQMNSLIPEDTAVYYCAVGLPSRYDYWGQGTQVTVSS | low polyreactivity
30 | QVQLVESGGGLVQAGGSLRLSCAASGRTFAYNTMGWYRQAPGKERELVAAISTSGVRTFYADSVKGRFTISRDNAKNTVYLQMNSLKPEETAVYSYDWGQGTQVTVSS | low polyreactivity
31 | QVQLVESGGGLVQAGGSLRLSCAASGRTFAYYAMGWYRPAPGKERELVATITRSGGITSYADSVKGRFTISRDNAKNTVYLQMSSLKPADTAVYYCNTGYSNRLHDYWGQGTQVTVSS | high polyreactivity
32 | QVQLVESGGGLVQAGGSLRLSCAASGRTFAYYAMGWYRQAPGKERELVAAISTNGGTYYADSVKGRFTISRDNAKNTVYFQLNSLKPEDTAVYSCAAYTSYDVDYWGQGTQVTVSS | low polyreactivity
33 | QVQLVESGGGLVQAGGSLRLSCAASGRTFDDYAMGGYSQAPGKERELVAAISWSGSSTYYADSVKGRFTISRDNAKNTVYLQMNSLKPEDTAVYYCAADSIRTLLTGNTVYIWYGYWGQGNQVTVSS | low polyreactivity
34 | QVQLVESGGGLVQAGGSLRLSCAASGRTFDFYAMGWYRQAPGKERELDAAITFSTGSTTYADSVKGRFTISRDNAKNTVYLQMNSLKPEDTAVYYCNAYLYRKFGYRAYDYWGQGTQVTVSS | low polyreactivity
35 | QVQLVESGGGLVQAGGSLRLSCAASGRTFDGYAMGWYRQAPGKERELVAAISGSGGRTYYADSVKGRFTISRDNAKNTVYLQMNSLKPEVTAVYYCRGYYKYYPDEYDYWGQGTQVTVSS | high polyreactivity
36 | QVQLVESGGGLVQAGGSLRLSCAASGRTFDGYDMGSYRQAPGKERELVAAINVVGGSTYYADSVKGRFTISRDNAKNTVYLLMNSLKPEDTEVYYCAARRSYLTNFRRYYKMDYWGQGTQVTVAS | low polyreactivity
37 | QVQLVESGGGLVQAGGSLRLSCAASGRTFDLNAMGWYRQAPGKERELVAGISSSGGRTYYADSVKGRFTISRDNAKNTVYLQMNSLKPEDTAVYYCAKVYPSYVLRKYDYWGQGTQVTVSS | high polyreactivity
38 | QVQLVESGGGLVQAGGSLRLSCAASGRTFDPYAMGWYRQAPGKERELVAAITSGDDTYYADSVKGRFTISRDTAKNTVYLQMNSLKPEETAVYFCAAASFTPDYYSHDYWGQGTQVTVSS | low polyreactivity
39 | QVQLVESGGGLVQAGGSLRLSCAASGRTFDPYARGGYRQAPGKERELVASISRGGSTYADSVKGRFTISRDNAKNTVYLQMNSLKPEDTAVYYCNTSLYTEGDAMDYWGQGTQVTVSS | low polyreactivity
40 | QVQLVESGGGLVQAGGSLRLSCAASGRTFDRYAMGWYRQAPGKERELVAAISRGGSTNYADSVKGRFTISRDNAKNTVYLQMNSLKPEDTAVYYCAARVSFLHLRRAYDYWGQGTQVTVSS | high polyreactivity
41 | QVQLVESGGGLVQAGGSLRLSCAASGRTFDRYTMGWYRRAPGKERELVATIRSTGSTYYADSVKGRFTISRDNAKNTVYLQMNSLKTEDTAVYYCNRKYRSSLPYGDGYWGQGTQVTVSS | low polyreactivity
42 | QVQLVESGGGLVQAGGSLRLSCAASGRTFDSNAMGWYRQAPGKERELVAAISWSGGSTYYADSVKGRFTISRDNAKNTVYLQMNSLKPEDTAVYYCNRLGRHAPATRYGYWGQGTQVTVSS | high polyreactivity
43 | QVQLVESGGGLVQAGGSLRLSCAASGRTFDVNAMGWYRQAPGKERELVAAITWDGGSTYYADSVKGRFTISRDNAKNTVYLQMNSLKPEDTAVYYCAADFIQGAWWYVTYRYTYEYWGQGTQVTVSS | low polyreactivity
